The values below come from paper PMC8399836.

This experiment concerns the target individual G6PD protein (g6pd region of the fused G6PD::6PGL enzyme from Giardia lamblia) (Giardia lamblia). Briefly: SEC; size exclusion chromatography (gel filtration) of the purified individual G6PD protein; one peak with G6PD activity; column and buffer not told in the text shown.

For orientation: stoichiometry N means a count of units in the complex or per binding partner. In turn, “individual G6PD protein (g6pd region of the fused G6PD::6PGL enzyme from Giardia lamblia) (domain or fragment)” returned a stoichiometry N of 2.
